Results as given in publication PMC7299284, “Studies in humanized mice and convalescent humans yield a SARS-CoV-2 antibody cocktail” (Science (New York, N.y.), 2020).

B1: REGN10933 (antibody, V domains shown)
VH: QVQLVESGGGLVKPGGSLRLSCAASGFTFSDYYMSWIRQAPGKGLEWVSYITYSGSTIYYADSVKGRFTISRDNAKSSLYLQMNSLRAEDTAVYYCARDRGTTMVPFDYWGQGTLVTVSS
VL: DIQMTQSPSSLSASVGDRVTITCQASQDITNYLNWYQQKPGKAPKLLIYAASNLETGVPSRFSGSGSGTDFTFTISGLQPEDIATYYCQQYDNLPLTFGGGTKVEIK
notes: source: CHO cells, transfected, recombinant fully human antibody; copies: 2 + 2
B2: REGN10987 (antibody, V domains shown)
VH: QVQLVESGGGVVQPGRSLRLSCAASGFTFSNYAMYWVRQAPGKGLEWVAVISYDGSNKYYADSVKGRFTISRDNSKNTLYLQMNSLRTEDTAVYYCASGSDYGDYLLVYWGQGTLVTVSS
VL: QSALTQPASVSGSPGQSITISCTGTSSDVGGYNYVSWYQQHPGKAPKLMIYDVSKRPSGVSNRFSGSKSGNTASLTISGLQSEDEADYYCNSLTSISTWVFGGGTKLTVL
notes: as for B1

What was measured:
[1] = target: T1, RBD of SARS-CoV-2 spike (construct not told: ACE2 blocking, cross-competition and HDX-MS experiments) (SARS-CoV-2, UniProt P0DTC2); assay: HDX-MS; hydrogen-deuterium exchange mass spectrometry of spike protein RBD with each of nine antibodies; settings: both partners purified
T1 construct: also called spike protein RBD

[2] = target: T1, RBD of SARS-CoV-2 spike (construct not …); assay: cross-competition binding assay; cross-competition of the nine most-potent neutralizing antibodies for binding to RBD (fig. S7)

Binder | binding result [1] | binding result [2]
B1 | binds | –
B2 | – | binds
